Measured values: the Immune Epitope Database (IEDB)

Tests used:
HLA-A*02:01 [1] = test: IEDB peptide-MHC binding, purified MHC/competitive/radioactivity; ≥ and ≤ were set here for values at or beyond the usual limits of such assays
HLA-B*27:05 = test: IEDB peptide-MHC binding, purified MHC/direct/fluorescence; filed as Kd, often an IC50 or EC50 that approximates it; ≥ and ≤ were set here for values at or beyond the usual limits of such assays
HLA-B*48:01 = test: as above; conditions: source organism: Burkholderia mallei
HLA-A*69:01 [2] = test: as above
HLA-A*11:01 = test: as above; conditions: source organism: Burkholderia mallei
HLA-B*18:01 [3] = test: as above
HLA-A*01:01 = test: as above
HLA-B*57:01 [4] = test: as above; conditions: source organism: Burkholderia mallei
HLA-A*68:02 [5] = test: as above; conditions: source organism: Burkholderia mallei
HLA-B*58:01 = test: as above
HLA-A*03:01 = test: as above
HLA-B*15:09 = test: as above
HLA-B*07:02 = test: as above
HLA-A*02:01 [6] = test: as above
HLA-A*26:01 [7] = test: as above
HLA-B*44:02 = test: as above
HLA-B*15:01 [8] = test: as above
HLA-B*08:01 = test: as above
HLA-B*39:01 [9] = test: as above; conditions: source organism: Burkholderia mallei ATCC 23344
HLA-B*15:17 [10] = test: as above; conditions: source organism: Burkholderia mallei
HLA-B*40:01 = test: as above
HLA-A*31:01 = test: as above; conditions: source organism: Burkholderia mallei
HLA-A*02:03 = test: IEDB peptide-MHC binding, purified MHC/competitive/fluorescence; filed as Kd, often an IC50 or EC50 that approximates it; ≥ and ≤ were set here for values at or beyond the usual limits of such assays; conditions: source organism: Human immunodeficiency virus 1
HLA-A*68:02 [11] = test: as above; conditions: source organism: Human immunodeficiency virus 1
HLA-A*24:02 = test: IEDB peptide-MHC binding, purified MHC/direct/fluorescence; filed as Kd, often an IC50 or EC50 that approximates it; ≥ and ≤ were set here for values at or beyond the usual limits of such assays; conditions: source organism: Influenza A virus (A/quail/Hong Kong/FY298/00(H9N2))
HLA-B*46:01 [12] = test: as above; conditions: source organism: Influenza A virus (A/quail/Hong Kong/FY298/00(H9N2))
HLA-B*27:03 = test: IEDB peptide-MHC binding, purified MHC/competitive/fluorescence; filed as Kd, often an IC50 or EC50 that approximates it; ≥ and ≤ were set here for values at or beyond the usual limits of such assays
HLA-A*69:01 [13] = test: as above; conditions: source organism: Mus musculus
HLA-B*18:01 [14] = test: as above
HLA-B*51:01 = test: as above
HLA-B*57:01 [15] = test: as above
HLA-A*02:01 [16] = test: as above
HLA-B*46:01 [17] = test: as above
HLA-A*26:01 [18] = test: as above
HLA-B*39:01 [19] = test: as above
HLA-C*08:02 = test: IEDB peptide-MHC binding, purified MHC/direct/fluorescence; filed as Kd, often an IC50 or EC50 that approximates it; ≥ and ≤ were set here for values at or beyond the usual limits of such assays
HLA-A*26:02 = test: as above; conditions: source organism: Influenza A virus(A/swine/Shandong/fZC/2003(H9N2))
HLA-B*15:01 [20] = test: IEDB peptide-MHC binding, purified MHC/competitive/fluorescence; filed as Kd, often an IC50 or EC50 that approximates it; ≥ and ≤ were set here for values at or beyond the usual limits of such assays; conditions: source organism: Homo sapiens
HLA-B*15:17 [21] = test: as above; conditions: source organism: Homo sapiens
[22] = source organism: Burkholderia mallei
[23] = source organism: Burkholderia mallei ATCC 23344
[24] = source organism: Influenza A virus (A/quail/Hong Kong/FY298/00(H9N2))

Question: With RLPRIFCSC as the sequence, how does the IC50 (HLA-A*02:01 [1]; source organism: Homo sapiens) read?
Answer: 1.98 µM

Question: Which results are given for FEIGNGDAG?
Answer: Kd (HLA-B*27:05; [22]): ≥ 20 µM; Kd (HLA-B*48:01): ≥ 20 µM; Kd (HLA-A*69:01 [2]; [22]): ≥ 20 µM; Kd (HLA-A*11:01): ≥ 20 µM; Kd (HLA-B*18:01 [3]; [22]): ≥ 20 µM; Kd (HLA-A*01:01; [22]): ≥ 20 µM; Kd (HLA-B*57:01 [4]): ≥ 20 µM; Kd (HLA-A*68:02 [5]): ≥ 20 µM; Kd (HLA-B*58:01; [22]): ≥ 20 µM; Kd (HLA-A*03:01; [22]): ≥ 20 µM; Kd (HLA-B*15:09; [23]): ≥ 20 µM; Kd (HLA-B*07:02; [22]): ≥ 20 µM; Kd (HLA-A*02:01 [6]; [22]): ≥ 20 µM; Kd (HLA-A*26:01 [7]; [23]): ≥ 20 µM; Kd (HLA-B*44:02; [22]): ≥ 20 µM; Kd (HLA-B*15:01 [8]; [22]): ≥ 20 µM; Kd (HLA-B*08:01; [23]): ≥ 20 µM; Kd (HLA-B*39:01 [9]): ≥ 20 µM; Kd (HLA-B*15:17 [10]): ≥ 20 µM; Kd (HLA-B*40:01; [22]): ≥ 20 µM; Kd (HLA-A*31:01): ≥ 20 µM

Question: Which results are given for EELKSLYNTI?
Answer: Kd (HLA-A*02:03): ≥ 20 µM; Kd (HLA-A*68:02 [11]): 1.78 µM

Question: Which IC50 (HLA-A*02:01 [1]; source organism: Homo sapiens) does the source give for ILCGTCLIV here?
Answer: 0.192 µM

Question: Which Kd (HLA-B*27:05; [24]) does the source give for ALTLNTMTK here?
Answer: ≥ 20 µM

Question: What about the Kd (HLA-A*69:01 [2]; [24]) of the same sequence?
Answer: ≥ 20 µM

Question: What about the Kd (HLA-B*18:01 [3]; [24]) of the same sequence?
Answer: ≥ 20 µM

Question: What about the Kd (HLA-A*01:01; [24]) of the same sequence?
Answer: ≥ 20 µM

Question: And the Kd (HLA-B*58:01; [24])?
Answer: ≥ 20 µM

Question: What about the Kd (HLA-A*24:02) of the same sequence?
Answer: ≥ 20 µM

Question: And the Kd (HLA-A*03:01; source organism: Influenza A virus (A/Puerto Rico/8/34/Mount Sinai(H1N1)))?
Answer: 0.724 µM

Question: What about the Kd (HLA-B*15:09; source organism: Influenza A virus(A/swine/Henan/5/2004(H9N2))) of the same sequence?
Answer: ≥ 20 µM

Question: What about the Kd (HLA-B*07:02; [24]) of the same sequence?
Answer: ≥ 20 µM

Question: What about the Kd (HLA-A*02:01 [6]; [24]) of the same sequence?
Answer: ≥ 20 µM

Question: What about the Kd (HLA-B*46:01 [12]) of the same sequence?
Answer: ≥ 20 µM

Question: And the Kd (HLA-B*44:02; [24])?
Answer: ≥ 20 µM

Question: What about the Kd (HLA-B*15:01 [8]; [24]) of the same sequence?
Answer: ≥ 20 µM

Question: And the Kd (HLA-B*08:01; [24])?
Answer: ≥ 20 µM

Question: What about the Kd (HLA-B*40:01; [24]) of the same sequence?
Answer: ≥ 20 µM

Question: With SLSHYFTLV as the sequence, how does the IC50 (HLA-A*02:01 [1]; source organism: Trypanosoma cruzi) read?
Answer: 0.0016 µM

Question: With LVDENQSWY as the sequence, how does the Kd (HLA-B*27:03; source organism: Mus musculus) read?
Answer: ≥ 20 µM

Question: And the Kd (HLA-A*69:01 [13])?
Answer: ≥ 20 µM

Question: And the Kd (HLA-B*18:01 [14]; source organism: Mus musculus)?
Answer: ≥ 20 µM

Question: And the Kd (HLA-B*51:01; source organism: Mus musculus)?
Answer: ≥ 20 µM

Question: And the Kd (HLA-B*57:01 [15]; source organism: Mus musculus)?
Answer: ≥ 20 µM

Question: And the Kd (HLA-A*02:01 [16]; source organism: Mus musculus)?
Answer: ≥ 20 µM

Question: What about the Kd (HLA-B*46:01 [17]; source organism: Mus musculus) of the same sequence?
Answer: ≥ 20 µM

Question: And the Kd (HLA-A*26:01 [18]; source organism: Mus musculus)?
Answer: ≥ 20 µM

Question: What about the Kd (HLA-B*39:01 [19]; source organism: Mus musculus) of the same sequence?
Answer: ≥ 20 µM

Question: What about the Kd (HLA-C*08:02; source organism: Mus musculus) of the same sequence?
Answer: ≥ 20 µM

Question: For IMDKNIIL, which IC50 (HLA-A*02:01 [1]; source organism: Influenza A virus (A/Puerto Rico/8/1934(H1N1))) is on record?
Answer: 21 µM

Question: What does the source list for TTAKAMEQM?
Answer: Kd (HLA-A*26:02): 0.002 µM; Kd (HLA-A*26:01 [7]; source organism: Influenza A virus (A/shorebird/Delaware Bay/277/2000(H9N7))): 0.0489 µM

Question: Which Kd (HLA-B*27:03; source organism: Homo sapiens) does the source give for WTDLFDNKV here?
Answer: ≥ 20 µM

Question: And the Kd (HLA-B*18:01 [14]; source organism: Homo sapiens)?
Answer: ≥ 20 µM

Question: And the Kd (HLA-B*51:01; source organism: Homo sapiens)?
Answer: ≥ 20 µM

Question: And the Kd (HLA-B*57:01 [15]; source organism: Homo sapiens)?
Answer: ≥ 20 µM

Question: What about the Kd (HLA-A*02:01 [16]; source organism: Homo sapiens) of the same sequence?
Answer: ≥ 20 µM

Question: And the Kd (HLA-B*46:01 [17]; source organism: Homo sapiens)?
Answer: ≥ 20 µM

Question: And the Kd (HLA-A*26:01 [18]; source organism: Homo sapiens)?
Answer: ≥ 20 µM

Question: And the Kd (HLA-B*15:01 [20])?
Answer: ≥ 20 µM

Question: What about the Kd (HLA-B*39:01 [19]; source organism: Homo sapiens) of the same sequence?
Answer: ≥ 20 µM

Question: And the Kd (HLA-B*15:17 [21])?
Answer: ≥ 20 µM

Question: What about the Kd (HLA-A*01:01; source organism: Homo sapiens) of the same sequence?
Answer: 0.002 µM

Question: And the Kd (HLA-C*08:02; source organism: Homo sapiens)?
Answer: 0.254 µM
